The values below come from US20210261676A1 (YINNUOLAI BIOTECH, published 2021).

As a reminder, the Kd is the free concentration of one partner at which half of the binding sites on the other are occupied at equilibrium, for simple one-to-one binding. As usually defined, the koff is the first-order rate constant of dissociation. A low value points to slow dissociation. The kon is the rate constant with which the complex forms.

This assay has as its target T1, B-cell activating factor (BAFF) receptor (human, UniProt Q96RJ3 7-71, limits assumed).
T1 construct: also called TNFRSF13C; BLyS receptor 3
T1 sequence: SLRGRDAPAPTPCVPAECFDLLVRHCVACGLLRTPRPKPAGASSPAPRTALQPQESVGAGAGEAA
Nature of the assay: method not stated; column heads (Kdis, Full X^2, Full R^2) look like bio-layer interferometry output. For orientation: Biolayer interferometry detects binding as a change in optical thickness at a sensor tip.

B1: H90-5 anti-BAFF receptor monoclonal antibody (antibody, V domains shown)
VH: EVQLQESGPGLVKPSQTLSLTCTVSGDSITSGYWNWIRQHPGKGLEYIGYISYSGSTYYNPSLKSRVTISRDTSKNQYSLKLSSVTAADTAVYYCASPNYPFYAMDYWGQGTLVTVSS
VL: DIVLTQSPATLSLSPGERATLSCRASESVDNYGISFMNWFQQKPGQAPRLLIYAASNRATGIPARFSGSGSGTDFTLTISSLEPEDFAVYYCQQSKEVPWTFGGGTKVEIKR
notes: Humanized form of C90; also called H90-5 mAb
Turning to B1, binding was characterised by a dissociation constant (Kd) of 3.4 nM, the koff amounted to 0.0034 s⁻¹ and the kon came to 990000 M⁻¹ s⁻¹.

B2: H90-11 anti-BAFF receptor monoclonal antibody (antibody, V domains shown)
VH: EVQLQESGPGLVKPSQTLSLTCTVSGDSITSGYWNWIRQHPGKGLEYIGYISYSGSTYYNPSLKSRVTISRDTSKNQYSLKLSSVTAADTAVYYCASPNYPFYAMDYWGQGTLVTVSS
VL: DIQMTQSPDSLAVSLGERATINCKSSQSVLYSSNNKNYLAWYQQKPGQPPKLLIYWASIRESGVPDRFSGSGSGTDFTLTISSLQPEDFATYYCQQSYSTPWTFGQGTKLEIKR
notes: same heavy chain variable region as H90-5; also called H90-11 mAb
B2 returned a Kd of 0.95 nM, a koff of 0.00082 s⁻¹ and a kon of 860000 M⁻¹ s⁻¹.
